Laboratory results from patent publication US12708677B2, “Contrast agents, methods for preparing contrast agents, and methods of imaging” (Georgia State University Research Foundation, Inc., priority 2008, dated 2026).

Legend:
[1] = Protein solubility by concentrating to precipitation; assay type: physicochemical; conditions: current formulation
Description: Protein was expressed in E. coli as inclusion body and purified using urea refolding and ion-exchange column. N15 labeled protein was expressed in SV medium as GST fusion (Yang et al., Biochem 2006) and purification was by GST-4B affinity column and SP column. Protein was verified by mass spectrometry. Protein concentration was calculated using extinction coefficient of w.t. CD2 of 11,000 (Ye et al., 2001). Protein solubility was determined by concentrating proteins to reach to precipitation using speed vac.

[2] = Dynamic NMR, rotational correlation time and S^2 order; assay type: physicochemical
Description: Therefore, the measured correlation time of the protein directly reflects the τR of the metal binding site. In contrast, the flexible metal binding loop in CA9.CD2 has an S^2 order value of 0.3-0.4, which is very different from CA1.CD2 with an S^2 value very close to that of the backbone of the protein.
Pulse field diffusion NMR was applied to measure the hydrodynamic radii of the protein (Lee et al., BBA 2003) with Protein samples CA1.CD2 and its variants of 0.2 mM in buffer, Lysozme and diaxone were used as an external and internal reference for calibration. The correlation size of the protein was measured using TauC pulse sequence developed by the Prestegard lab at UGA using ^15N labeled protein.

rabbits = assay: Immunogenicity in rabbits, ELISA and immunoblotting; assay type: in vivo, rabbit
Description: FIG. 2.7: Illustrates ELISA (left) or western blot (right) analyses of antibody produced in rabbit serum after i.p. injection of […] of protein CA1.CD2 or PEGylated CA1.CD2 (PEGCA1.CD2). In (left), Pre is the serum from pre-bleeding before antigen injection. CA1.CD2 was mixed with adjuvant (CA1.CD2+Ad) or with buffer saline (CA1.CD2+Sal) before injection. PabCD2 is the anti-serum from rabbits produced by a commercial source use CD2 as antigen. The open bars are the first bleed after first injection. The gray bars are the second bleed after second injection. The rabbit blood was taken 3 weeks after each injection. The error bars are standard deviations of four measurements. In (right), Western blots were performed with anti-serum (1st bleed) from rabbits that were injected; CA1.CD2 mixed with buffered saline (left panel, CA1.CD2+Sal), CA1.CD2 mixed with adjuvant (middle panel, CA1.CD2+Ad), and the PEGylated CA1.CD2 (right panel, PEG-CA1.CD2). The Western blots experiments were carried out with 0.5 mg of PEGylated CA1.CD2 (PEG-CA1.CD2) or unmodified CA1.CD2 (CA1.CD2). Arrow indicates the position of the detected protein bands 19 hours post injection.
Rabbits were i.p. injected with Gd-CA1.CD2 and its pegylated variants. The agents (CA1.CD2) were mixed with adjuvant or with buffer saline and injected at a dose of 3.0 nmole/kg according to the standard protocol for the antibody production. […]

CD-1 mice = assay: Mouse MR imaging; assay type: in vivo
Description: (§1) Mouse MR Imaging. Care of experimental animals was in accordance with institutional guidelines. CD-1 mice (25-30 g, four mice were imaged) were anesthetized with an isoflurane gas mixture. The anesthetized animal was positioned and stabilized with soft-supporting material (e.g., foam) in the scanner in the coil cradle and was kept warm during the MRI scan. The mice were scanned prior to the administration of any contrast agent (pre-contrast). Approximately 50 μl of Gd-CA1.CD2 (~1.2 mM) or Gd-DTPA (~300 mM) were injected into the animal via the tail vein. MR images were collected at different times (indicated). For T1 weighted imaging at 3T, spin echo sequence with TE/TR=15 ms/500 ms was employed. Rectangular Field of View (FOV) at 100/40 mm, an acquisition matrix of 196^2 and 1.1 mm slice thickness without gap were used. Images were collected from both transverse and coronal sections. The in-plane resolution of images was less than 0.5 mm after they were reconstructed to the matrix of 196^2. For T2 weighted imaging at 9.4T, MR images were recorded using a multi-echo Carr-Purcell-Meiboom-Gill (CPMG) sequence. The data were collected and processed by Dicomworks software. The MR signal intensity in several organs was ascertained by the average intensity in ROIs or points within the organs. Signal intensity for each organ was normalized to that of the leg muscle.
as §1, with “Care” for “Mouse MR Imaging. Care”, “(e.g.” for “(e.g.,”

| Molecule | solubility [1] | overall correlation time ([2]; absence of bound metal ions) | overall correlation time ([2]; presence of bound metal ions) | antibody production (rabbits; with adjuvant) | antibody production (rabbits; without adjuvant, double dose immunization, 3.0 nmole/kg i.p.) | MRI contrast enhancement, T1 weighted spin echo (CD-1 mice; 3T, ~2.4 μmole Gd/kg via tail vein) | T2 contrast enhancement (CD-1 mice; 9.4T) | T1 contrast enhancement in the kidney cortex (CD-1 mice; 18 hours after administration) | duration of contrast enhancement at multiple organs (CD-1 mice; mouse, in vivo) |
| --- | --- | --- | --- | --- | --- | --- | --- | --- | --- |
| CA1.CD2: designed Gd^3+-binding protein, domain 1 of rat CD2 with ligand residues Glu15, Glu56, Asp58, Asp62, Asp64 (protein) RDSGTVWGALGHGIELNIPNFQMTDDIDEVRWERGSTLVAEFKRKMKPFLKSGAFEIDANGDLDIKNLTRDDSGTYNVTVYSTNGTRILNKALDLRILE | ~ 0.7 mM | 9.20 ns | 9.08 ns | resulted in immuno-responses | did not lead to antibody production |  |  |  |  |
| Gd-CA1.CD2: CA1.CD2 in complex with Gd^3+ (protein) RDSGTVWGALGHGIELNIPNFQMTDDIDEVRWERGSTLVAEFKRKMKPFLKSGAFEIDANGDLDIKNLTRDDSGTYNVTVYSTNGTRILNKALDLRILE |  |  |  |  |  | greatest enhancement of the MRI contrast observed in the kidney | strong T2 contrast enhancement | diminished substantially | 4 to 7 h |
